The results in this text go back to article PMC2846270 (Biochemical and biophysical research communications, 2010).

The data set deals with the molecule itself. In words: electron microscopy.

B1: Taz1pΔC (C-terminally truncated version of the Taz1 protein) (domain or fragment, S. pombe, UniProt P79005 1-556, looked up)
chain: MISVQSTETIQKVLENEGDQQFDKEVVQNSDSNIETGQISDSLTKAVEERAETESSSNLSNFTTSESESSKPAYCFNSHSQNMAEGSISIPVISHSMNVENEVSTAEGQDSRTGESENDQNAMIVRSIWDIEKASLLVNDCQNIANMAEQKVMMVSAIFSESSKDIVNPESFSERLGKETVKDLYEFNEQLTTKYGLEFRTIFFSYIRKYDAYWCLFEDLEKPLKSIQFFTGLIDLLDNTNKHLTLRSIVLDALLSADEEDSFYGDALVLFEELVIRYFGTDSNPSIDASEFILSCLPYTSLDALNVVCGQVWKSQKICDFLKSTIGNTSNSPLQLRASFPAFVNAVIHFLLEFKNVRRLERKDLSVKGMLYDSDSQQILNRLRERVSGSTAQSADEASGHESDASEDTFSERTLGLNSIDNTEISEVVSLGLVSSALDKITGLLSADNLSETVSQARDFSHTLSKSLKSRAKSLSQKEAANRSKLIAKRGDNLRREASLSSEQDDLSEDFPPVRESDEQESRSGGRSSAMRVSIERSAARSGTRRSQGNPYEGYR
Regarding B1, the binding result was “binds”.
